From the supplement of paper PMC9732359
± gives the uncertainty stated by the source.

Experiment: protein stability index of a GFP-peptide fusion (yeast GPS) (PSI 1-4); higher = more stable; sorted into four equal gates, so the index is relative within each strain
Settings: ubr1∆
How it was run: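 Each library plasmid carries Cherry plus GFP with a tiled 17-residue yeast protein peptide fused downstream, and the pooled library was carried in yeast. Mid-log cultures in leucine-free medium were sorted into four equal gates by GFP/Cherry ratio. Reads from Illumina sequencing of PCR-amplified plasmids from each gate were assigned to strains by barcodes. Per peptide, the protein stability index was computed as the summed products of gate read frequency and gate number.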
HKVTQKKDIKIGTNDLF [SIR4] showed a protein stability index of 2.27 ± 0.13. Work on HLAICLDIINPGSVEEV [YDL116W/NUP84] yielded a protein stability index of 3.45 ± 0.088. HLAVVCVDDNSKISFID [SSN2] showed a protein stability index of 3.67 ± 0.16. In the case of HLDSFNYFVDTDLKKII [RET1], the protein stability index is reported as 2.64 ± 0.038. In the case of HLIKCFFKITLQRASSK [ITC1], the protein stability index is reported as 1.08 ± 0.051. With HMISQEGIKETQAKRIF [SWI1] the protein stability index was 3.22 ± 0.13. Sequence HMSTYLKIYKVGDIVDI [RPL21B] has a protein stability index of 1.95 ± 0.036. HNGRDKIQFHIHFADVA [RGR1] gave a protein stability index of 1.84 ± 0.043. HNVFSKEQTIQLPSKFT [RPN14] showed a protein stability index of 2.64 ± 0.099. Work on HPFGHALVAGIERYPLK [RPL27A] yielded a protein stability index of 2.49 ± 0.062. In the case of HPFVFEEVEDQINPTRE [SNF2], the protein stability index is reported as 3.13 ± 0.086. For HPKIVKKHTKKFKRHHS [RPL32], the protein stability index was 3.02 ± 0.037. In the case of HPSIYTQVFNILLQHKE [POP1], the protein stability index is reported as 2.39 ± 0.044. HQHGDKVDIFEIPETGE [FAS2] gave a protein stability index of 2.54 ± 0.069. HQQQLQQPHYIQRTRER [DSN1] showed a protein stability index of 2.84 ± 0.042. In the case of HRDKNKMDMICRNINRK [DIS3], the protein stability index is reported as 3.33 ± 0.12. HRIGQKKQVHVYRFVTE [ISW2] gave a protein stability index of 2.12 ± 0.038. Sequence HRLIATHTNLERDEQKR [SNF2] has a protein stability index of 3.32 ± 0.048. HRLSILSHYAKIRPWRT [RPO31] gave a protein stability index of 2.84 ± 0.052. With HSFEDAHTPMLQMYSKI [FAS1] the protein stability index was 2.84 ± 0.076. HSKFRSSSGNTWSLILN [YML031W/NDC1] showed a protein stability index of 3.12 ± 0.077. With HSLAYLLENFANFKTSK [RRP6] the protein stability index was 2.53 ± 0.17. With HSNRCIVFSKKEPFPHS [CSN12] the protein stability index was 2.69 ± 0.037. HTGKKLMAQIFFGPTYY [RPB2] gave a protein stability index of 1.81 ± 0.029. In the case of HTTQIVNLEDNTQDLLL [YML103C/NUP188], the protein stability index is reported as 3.07 ± 0.086. In the case of HVEKERASTELSQSRIK [YIL149C/MLP2], the protein stability index is reported as 3.1 ± 0.074. With HVESDKITAKTQHEEEE [IRR1] the protein stability index was 2.81 ± 0.11. HVVTREKGPQVCAKLFG [RPO21] gave a protein stability index of 3.08 ± 0.1. HYERTQTKENKRCVGVI [RPN8] gave a protein stability index of 2.43 ± 0.057. With HYVSTSKISQMAQNKTH [YLR018C/POM34] the protein stability index was 1.87 ± 0.027. HYVVLDTNVVLQAIDLL [DIS3] showed a protein stability index of 2.39 ± 0.064. Sequence IADELMKLDDSSKTRNV [ITC1] has a protein stability index of 2.78 ± 0.08. With IADKTTYDKETITDLIE [SIR4] the protein stability index was 3.27 ± 0.05. IAEVGNKRWKVDIGGKQ [RRP4] gave a protein stability index of 3.36 ± 0.061. IAKPNTANAKHTSSNSR [SMB1] gave a protein stability index of 2.87 ± 0.067. Work on IAPRPLDLLRPVVRAPT [RPL13A] yielded a protein stability index of 2.7 ± 0.051. IASTEKPENKTDKVSLS [SIR4] gave a protein stability index of 2.89 ± 0.088. IAVLRSKEWFQLDDEDF [FAS1] gave a protein stability index of 2.32 ± 0.038. In the case of ICLYSSFQKNSLHNTEK [AAR2], the protein stability index is reported as 2.78 ± 0.057. With IDADSLEDIYTSAHEAI [RPL5] the protein stability index was 3.13 ± 0.056. For IDAMKAVAEAYNNRSLL [RPN6], the protein stability index was 1.79 ± 0.067. With IDDANVTRKQEDARRNP [RPC37] the protein stability index was 2.01 ± 0.1. With IDEHIDLGIKYDPSIGI [RPL11A] the protein stability index was 2.903 ± 0.029. Work on IDEIDAIGTKRYDSNSG [RPT2] yielded a protein stability index of 2.92 ± 0.19. In the case of IDGKTVSYKDYSIFLEN [SMC1], the protein stability index is reported as 2.89 ± 0.046. In the case of IDGKVIQAGKFDNKSTS [SNF2], the protein stability index is reported as 1.95 ± 0.089. IDIINKLILHAIHIFES [YML103C/NUP188] showed a protein stability index of 1.38 ± 0.034. For IDKLMLSPSDQFAPAFL [SSN2], the protein stability index was 2.5 ± 0.09. IDMGEDKENVPVEKVKE [DPB4] gave a protein stability index of 3.67 ± 0.13. In the case of IDPSVTMMTVEEKPDVT [RPT1], the protein stability index is reported as 2.38 ± 0.05. With IDQDIHGIVFQHPFPLA [SSN2] the protein stability index was 2.64 ± 0.032. In the case of IDQVMMSVSDNDQALIK [RET1], the protein stability index is reported as 3.01 ± 0.051. In the case of IDRNLKCQTCQEGMNEC [RPO21], the protein stability index is reported as 2.37 ± 0.079. With IDRNSTILYLNVFHGLC [IRR1] the protein stability index was 2.78 ± 0.17. Sequence IDRPKHELSRAELEELE [SMD2] has a protein stability index of 3.38 ± 0.1. In the case of IDTSKNLENMSIQDTST [YCG1], the protein stability index is reported as 2.68 ± 0.041. IEDLRADINSNRLSNPQ [YOR098C/NUP1] gave a protein stability index of 2.93 ± 0.061. With IEEAKSIRRQDYINELS [REC8] the protein stability index was 3.14 ± 0.17. IEEEIFDDSSRIVNHKT [LIN1] showed a protein stability index of 2.97 ± 0.071. For IEFEYDPWNKLKHTDYW [RPB3], the protein stability index was 3.06 ± 0.089. With IEILVKDNECSSFEENN [RRI2] the protein stability index was 3.33 ± 0.12. Sequence IELSDGSTFKVNQEFIF [YJL039C/NUP192] has a protein stability index of 3.13 ± 0.064. In the case of IEMKDVSSKPSKPESSV [MED1], the protein stability index is reported as 3.25 ± 0.064. Sequence IEMYVQEASKQYTKDEQ [RPN2] has a protein stability index of 3.31 ± 0.069. For IENMTKEKVSNGGVGVD [FAS2], the protein stability index was 3.11 ± 0.063. IEPVTKVSSLKMFIQRI [YCS4] showed a protein stability index of 3.31 ± 0.065. Sequence IEQFAMRRNSKILNIIK [POP5] has a protein stability index of 3.23 ± 0.07. Sequence IETIGHLITKEEIMHGL [RPN5] has a protein stability index of 2.97 ± 0.067. IEYCSAQPSVQSSFAGT [FAS2] showed a protein stability index of 2.56 ± 0.059. Sequence IFINYKQTADWLAEKFQ [PRP28] has a protein stability index of 2.36 ± 0.06. In the case of IFNGETLEDALRRIITD [GRR1], the protein stability index is reported as 2.07 ± 0.064. In the case of IFSQMSRLLDILEDYCY [ISW2], the protein stability index is reported as 3.01 ± 0.092. Work on IFSQTTNSTYNPASATD [YJL039C/NUP192] yielded a protein stability index of 2.63 ± 0.046. In the case of IFTEKIYKSIFNVVDVG [YJL039C/NUP192], the protein stability index is reported as 1.33 ± 0.065. Sequence IGAAELNENARELEQIK [SNF12] has a protein stability index of 3.33 ± 0.05. Sequence IGHLITKEEIMHGLQAK [RPN5] has a protein stability index of 3.01 ± 0.067. Sequence IGNLITRQFEGRSNEIV [PRP8] has a protein stability index of 2.7 ± 0.074. Work on IGTANYKPLIEERMGQI [SMC4] yielded a protein stability index of 3.27 ± 0.063. Work on IHGELKTYKEGINKNEE [SMC1] yielded a protein stability index of 3.01 ± 0.046. IHSLVKQRLDLARQVKL [YIL149C/MLP2] gave a protein stability index of 2.83 ± 0.047. IIAELSFLKVDPDLGLD [YJL039C/NUP192] gave a protein stability index of 3 ± 0.095. With IIASASYDKTVKLWEED [YGL100W/SEH1] the protein stability index was 3.41 ± 0.12. IIDEIITQMRVNDEEEH [RPC82] gave a protein stability index of 2.19 ± 0.079. With IIFASTKLGFTFTIKEF [SNU114] the protein stability index was 2.56 ± 0.066. For IIKLVEGLANDPENKVP [RPS12], the protein stability index was 2.08 ± 0.09. IILGTNLYDGAEHKYMP [BRR2] showed a protein stability index of 3.27 ± 0.1. In the case of IIMFVGLQGSGKTTSCT [SRP54], the protein stability index is reported as 3.13 ± 0.046. For IINSTALMKEKDIRSTL [RPC82], the protein stability index was 3.25 ± 0.09. IIPQDILDCVVTNSMRQ [YJR042W/NUP85] gave a protein stability index of 2.94 ± 0.063. Sequence IIRHEKELEPWDLQLQE [SMC4] has a protein stability index of 3.47 ± 0.16. IITSGRDTREVLEERER [ARP9] gave a protein stability index of 3.52 ± 0.1. Work on IIVPDLIELKSDLLVAP [YML103C/NUP188] yielded a protein stability index of 1.69 ± 0.059. IKDSVREVGTKFTTVLA [ECM29] showed a protein stability index of 2.42 ± 0.05. In the case of IKEENDMENMADEQKRS [ARP7], the protein stability index is reported as 3.19 ± 0.24. Sequence IKEKVQFNATINPESRE [ITC1] has a protein stability index of 2.07 ± 0.037. Sequence IKELLNITKNLKTFNGS [POP4] has a protein stability index of 2.21 ± 0.047. IKGQCLATLLGHNDWVS [ASC1] gave a protein stability index of 1.65 ± 0.066. IKHKHKKVKLAVLSYYK [RPS31] showed a protein stability index of 2.25 ± 0.048. In the case of IKIEPSADDDVNNGNIP [SIR3], the protein stability index is reported as 2.76 ± 0.13. IKKVICGAWEPAITIEK [SIR3] gave a protein stability index of 2.58 ± 0.084. Sequence IKLDIVVGQNQLIDQFE [SNF5] has a protein stability index of 2.25 ± 0.085. Work on IKPKIALQDKEITSVLS [SNF12] yielded a protein stability index of 2.28 ± 0.093. Work on IKRTDEGGEAEFIFGTY [ARP7] yielded a protein stability index of 3.36 ± 0.045. For IKVTVQLKIQNRQAAAS [RPL12A], the protein stability index was 2.16 ± 0.04.
